# Test results taken from patent US20050118674A1, “Engineering of Controlled Deamidation Rates in Peptides, Proteins, and Similar Structures” (priority 2003, published 2005).
# Where no end group is shown, it is not given here.
# Assay: First-order nonenzymatic deamidation of pentapeptides in Tris buffer
# Format: physicochemical
# Details: pH 7.4, 37.0° C., 0.15 M Tris HCl; Asn pentapeptides
# Experimental: One of the discoveries made was that the sequence dependence of deamidation is much richer and covers a wider range than previously thought. In 37° C., pH 7.4, 0.15 M Tris buffer, the combination of XxxAsnYyy and XxxGlnYyy sequences where Xxx and Yyy are any of the naturally occuring amino acids covers a range from less than 1 day to over 15,000 days with the entire range in between available.
# It is based on pentapeptide rates measure in 37° C., pH 7.4, 0.15 M Tris buffer. The applicability of a pentapeptide model to sequence dependence was verified in a separate set of experiments. All values listed in this table are experimental except for the four values in boxes, which were estimated from the rest of the data.
# It is also based on pentapeptide rates measure in 37° C., pH 7.4, 0.15 M Tris buffer. In this case, the 52 values shown in bold were measured, and the rest of the values were derived from surface fitting.
# Deamidation rates are affected by a wide variety of parameters, including, pH, Temperature, Ionic Strength, and Buffer Ions. These rates are measured under pH and Temperature conditions that are applicable to biological systems. The buffer type and concentration were chosen to minimize ion affects to the extent possible given the experimental limitations. Modification of these conditions will change the rates in Tables 1 and 2. As long as the conditions are not taken to extremes (i.e. high temperature, or strongly acidic or basic conditions) the qualitative sequence dependence should remain the same and the rates reported here can be used with necessary adjustments.
row,Substance,First-Order Deamidation Halftimes of GlyXxxAsnYyyGly [days]
1,GlyAmCysAsnTrpGly (CNWG; not fully specified (N-terminus); printed as GlyAmCysAsnTrpGly),81.3
2,"GlyAmCysAsnTyrGly (CNYG; not fully specified (N-terminus); printed as GlyAmCysAsnTyrGly; also: glycinamide shown before Cys, linkage not given here)",78.8
3,"GlyAmCysAsnValGly (CNVG; not fully specified (N-terminus); printed as GlyAmCysAsnValGly; also: glycinamide shown before Cys, linkage not given here)",215
4,GlyArgAsnAlaGly (GRNAG; printed: GlyArgAsnAlaGly),24.4
5,GlyArgAsnAmCysGly,42.3
6,GlyArgAsnArgGly (GRNRG; printed: GlyArgAsnArgGly),67.4
7,GlyArgAsnAspGly (GRNDG; printed: GlyArgAsnAspGly),34.7
8,GlyArgAsnCysGly (GRNCG; printed: GlyArgAsnCysGly),50.5
9,GlyArgAsnGluGly (GRNEG; printed: GlyArgAsnGluGly),68.3
10,GlyArgAsnGlyGly (GRNGG; printed: GlyArgAsnGlyGly),1.00
11,GlyArgAsnHisGly (GRNHG; printed: GlyArgAsnHisGly),10.0
12,GlyArgAsnIleGly (GRNIG; printed: GlyArgAsnIleGly),311
13,GlyArgAsnLeuGly (GRNLG; printed: GlyArgAsnLeuGly),128
14,GlyArgAsnLysGly (GRNKG; printed: GlyArgAsnLysGly),49.6
15,GlyArgAsnMetGly (GRNMG; printed: GlyArgAsnMetGly),74.4
16,GlyArgAsnPheGly (GRNFG; printed: GlyArgAsnPheGly),68.3
17,GlyArgAsnProGly (GRNPG; printed: GlyArgAsnProGly),5790
18,GlyArgAsnSerGly (GRNSG; printed: GlyArgAsnSerGly),14.3
19,GlyArgAsnThrGly (GRNTG; printed: GlyArgAsnThrGly),50.7
20,GlyArgAsnTrpGly (GRNWG; printed: GlyArgAsnTrpGly),127
21,GlyArgAsnTyrGly (GRNYG; printed: GlyArgAsnTyrGly),90.0

row,Substance,First-Order Deamidation Halftimes of GlyXxxAsnYyyGly [days]
1,GlyArgAsnValGly (GRNVG; printed: GlyArgAsnValGly),247
2,GlyAspAsnAlaGly (GDNAG; printed: GlyAspAsnAlaGly),24.0
3,GlyAspAsnAmCysGly,45.8
4,GlyAspAsnArgGly (GDNRG; printed: GlyAspAsnArgGly),87.2
5,GlyAspAsnAspGly (GDNDG; printed: GlyAspAsnAspGly),29.4
6,GlyAspAsnCysGly (GDNCG; printed: GlyAspAsnCysGly),54.1
7,GlyAspAsnGluGly (GDNEG; printed: GlyAspAsnGluGly),46.8
8,GlyAspAsnGlyGly (GDNGG; printed: GlyAspAsnGlyGly),1.53
9,GlyAspAsnHisGly (GDNHG; printed: GlyAspAsnHisGly),9.7
10,GlyAspAsnIleGly (GDNIG; printed: GlyAspAsnIleGly),298
11,GlyAspAsnLeuGly (GDNLG; printed: GlyAspAsnLeuGly),111
12,GlyAspAsnLysGly (GDNKG; printed: GlyAspAsnLysGly),75.9
13,GlyAspAsnMetGly (GDNMG; printed: GlyAspAsnMetGly),57.3
14,GlyAspAsnPheGly (GDNFG; printed: GlyAspAsnPheGly),70.1
15,GlyAspAsnProGly (GDNPG; printed: GlyAspAsnProGly),11800
16,GlyAspAsnSerGly (GDNSG; printed: GlyAspAsnSerGly),17.0
17,GlyAspAsnThrGly (GDNTG; printed: GlyAspAsnThrGly),52.4
18,GlyAspAsnTrpGly (GDNWG; printed: GlyAspAsnTrpGly),80.3
19,GlyAspAsnTyrGly (GDNYG; printed: GlyAspAsnTyrGly),70.4
20,GlyAspAsnValGly (GDNVG; printed: GlyAspAsnValGly),241

# Same assay, conditions: pH 7.4, 37.0 ° C., 0.15 M Tris HCl; Gln pentapeptides; 52 values measured, rest derived from surface fitting
row,Substance,First-Order Deamidation Halftimes of GlyXxxGlnYyyGly [days]
1,GlyArgGlnAlaGly (GRQAG; printed: GlyArgGlnAlaGly),4400
2,GlyArgGlnArgGly (GRQRG; printed: GlyArgGlnArgGly),2300
3,GlyArgGlnAspGly (GRQDG; printed: GlyArgGlnAspGly),5900
4,GlyArgGlnCysGly (GRQCG; printed: GlyArgGlnCysGly),1000
5,GlyArgGlnGluGly (GRQEG; printed: GlyArgGlnGluGly),5400
6,GlyArgGlnGlyGly (GRQGG; printed: GlyArgGlnGlyGly),660
7,GlyArgGlnHisGly (GRQHG; printed: GlyArgGlnHisGly),4900
8,GlyArgGlnIleGly (GRQIG; printed: GlyArgGlnIleGly),5500
9,GlyArgGlnLeuGly (GRQLG; printed: GlyArgGlnLeuGly),5400
10,GlyArgGlnLysGly (GRQKG; printed: GlyArgGlnLysGly),4000
11,GlyArgGlnMetGly (GRQMG; printed: GlyArgGlnMetGly),4100
12,GlyArgGlnPheGly (GRQFG; printed: GlyArgGlnPheGly),7100
13,GlyArgGlnProGly (GRQPG; printed: GlyArgGlnProGly),8100
14,GlyArgGlnSerGly (GRQSG; printed: GlyArgGlnSerGly),4300
15,GlyArgGlnThrGly (GRQTG; printed: GlyArgGlnThrGly),4200
16,GlyArgGlnTrpGly (GRQWG; printed: GlyArgGlnTrpGly),11000
17,GlyArgGlnTyrGly (GRQYG; printed: GlyArgGlnTyrGly),9200
18,GlyArgGlnValGly (GRQVG; printed: GlyArgGlnValGly),5800
19,GlyAspGlnAlaGly (GDQAG; printed: GlyAspGlnAlaGly),7100
20,GlyAspGlnArgGly (GDQRG; printed: GlyAspGlnArgGly),5200
21,GlyAspGlnAspGly (GDQDG; printed: GlyAspGlnAspGly),8400
22,GlyAspGlnCysGly (GDQCG; printed: GlyAspGlnCysGly),2100
23,GlyAspGlnGluGly (GDQEG; printed: GlyAspGlnGluGly),8200
24,GlyAspGlnGlyGly (GDQGG; printed: GlyAspGlnGlyGly),800
25,GlyAspGlnHisGly (GDQHG; printed: GlyAspGlnHisGly),2500
26,GlyAspGlnIleGly (GDQIG; printed: GlyAspGlnIleGly),6400
27,GlyAspGlnLeuGly (GDQLG; printed: GlyAspGlnLeuGly),6200
28,GlyAspGlnLysGly (GDQKG; printed: GlyAspGlnLysGly),4600
29,GlyAspGlnMetGly (GDQMG; printed: GlyAspGlnMetGly),5200
30,GlyAspGlnPheGly (GDQFG; printed: GlyAspGlnPheGly),8500
